Measurements: patent US12692310B2, “ASIC1 channel antagonist antibody” (ShanghaiTech University, priority 2019, dated 2026)

T1: hASIC1a-eYFP (human, UniProt P78348 1-528)
T1 construct: whole, on cells; On CHO-K1 cells, stably (6H7) or transiently transfected; also called full-length hASIC1a (1-528 amino acids) fused with eYFP; CHO-K1/hASIC1a cells; not shown: C-terminal eYFP fusion
T1 sequence (looked up): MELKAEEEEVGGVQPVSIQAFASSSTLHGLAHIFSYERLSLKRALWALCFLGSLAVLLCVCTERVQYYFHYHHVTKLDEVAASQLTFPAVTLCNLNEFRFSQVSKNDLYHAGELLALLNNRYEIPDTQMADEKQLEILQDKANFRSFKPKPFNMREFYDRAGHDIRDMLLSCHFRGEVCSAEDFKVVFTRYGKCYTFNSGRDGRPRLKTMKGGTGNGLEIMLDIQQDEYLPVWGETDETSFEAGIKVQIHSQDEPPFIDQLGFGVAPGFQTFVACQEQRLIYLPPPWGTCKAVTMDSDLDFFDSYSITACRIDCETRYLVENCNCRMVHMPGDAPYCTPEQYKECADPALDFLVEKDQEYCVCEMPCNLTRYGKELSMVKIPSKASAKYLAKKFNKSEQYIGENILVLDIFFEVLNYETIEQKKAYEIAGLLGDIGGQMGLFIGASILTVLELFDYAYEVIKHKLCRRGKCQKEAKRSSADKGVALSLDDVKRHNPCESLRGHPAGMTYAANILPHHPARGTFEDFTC

T2: hASIC1a Y318A mutation (hASIC1a-eYFP) (human, UniProt P78348 1-528)
T2 construct: whole, on cells; Transiently expressed on CHO-K1 cells; not shown: eYFP fusion
T2 sequence (looked up): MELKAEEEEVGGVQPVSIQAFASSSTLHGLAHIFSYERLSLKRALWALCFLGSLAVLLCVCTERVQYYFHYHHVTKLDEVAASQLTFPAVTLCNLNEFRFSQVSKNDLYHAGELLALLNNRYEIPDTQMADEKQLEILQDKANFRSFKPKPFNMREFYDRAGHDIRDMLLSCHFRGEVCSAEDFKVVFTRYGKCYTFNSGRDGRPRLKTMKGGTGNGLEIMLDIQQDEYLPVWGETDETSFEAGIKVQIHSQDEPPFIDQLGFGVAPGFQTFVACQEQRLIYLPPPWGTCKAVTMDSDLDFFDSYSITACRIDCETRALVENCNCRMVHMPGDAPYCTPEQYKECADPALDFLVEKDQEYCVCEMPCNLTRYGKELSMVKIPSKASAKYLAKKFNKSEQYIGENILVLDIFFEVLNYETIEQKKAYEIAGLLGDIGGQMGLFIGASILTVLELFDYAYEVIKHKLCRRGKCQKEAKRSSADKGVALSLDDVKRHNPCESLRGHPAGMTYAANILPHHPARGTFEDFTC

T3: hASIC1a-mCherry (human, UniProt P78348 1-528)
T3 sequence (looked up): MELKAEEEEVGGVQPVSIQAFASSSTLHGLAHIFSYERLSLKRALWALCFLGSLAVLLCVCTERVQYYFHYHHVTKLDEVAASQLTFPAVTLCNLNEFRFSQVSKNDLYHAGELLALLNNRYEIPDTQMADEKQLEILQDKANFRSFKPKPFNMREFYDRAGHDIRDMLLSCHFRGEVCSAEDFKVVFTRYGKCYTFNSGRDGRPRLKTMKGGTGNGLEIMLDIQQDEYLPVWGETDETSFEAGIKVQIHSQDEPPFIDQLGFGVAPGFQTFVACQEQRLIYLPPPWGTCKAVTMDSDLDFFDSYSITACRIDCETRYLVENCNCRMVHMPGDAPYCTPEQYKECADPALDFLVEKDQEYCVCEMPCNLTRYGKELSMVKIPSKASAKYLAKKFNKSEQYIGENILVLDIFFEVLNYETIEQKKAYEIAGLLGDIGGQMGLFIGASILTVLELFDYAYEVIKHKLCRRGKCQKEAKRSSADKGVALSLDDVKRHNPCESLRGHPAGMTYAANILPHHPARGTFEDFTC

T4: hASIC3a-eYFP (human, UniProt Q9UHC3 1-531)
T4 construct: whole, on cells; Transiently expressed on CHO-K1 cells; not shown: eYFP fusion
T4 sequence (looked up): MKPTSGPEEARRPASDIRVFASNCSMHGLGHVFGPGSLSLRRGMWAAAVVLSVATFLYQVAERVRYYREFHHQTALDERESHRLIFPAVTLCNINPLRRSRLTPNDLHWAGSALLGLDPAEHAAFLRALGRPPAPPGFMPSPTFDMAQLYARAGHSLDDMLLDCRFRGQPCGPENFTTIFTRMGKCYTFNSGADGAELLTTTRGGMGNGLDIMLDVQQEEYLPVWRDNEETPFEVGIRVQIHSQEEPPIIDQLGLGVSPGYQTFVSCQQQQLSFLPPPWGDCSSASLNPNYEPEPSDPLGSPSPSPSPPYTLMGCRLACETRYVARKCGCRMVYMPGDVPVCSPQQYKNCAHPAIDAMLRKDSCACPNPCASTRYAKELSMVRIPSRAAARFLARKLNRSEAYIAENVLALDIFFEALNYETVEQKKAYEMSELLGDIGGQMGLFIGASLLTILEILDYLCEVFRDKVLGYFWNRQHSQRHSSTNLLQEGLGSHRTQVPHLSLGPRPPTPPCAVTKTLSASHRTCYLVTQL

T5: hASIC2a-eYFP (human, UniProt Q16515 1-512)
T5 construct: whole, on cells; Transiently expressed on CHO-K1 cells; not shown: eYFP fusion
T5 sequence (looked up): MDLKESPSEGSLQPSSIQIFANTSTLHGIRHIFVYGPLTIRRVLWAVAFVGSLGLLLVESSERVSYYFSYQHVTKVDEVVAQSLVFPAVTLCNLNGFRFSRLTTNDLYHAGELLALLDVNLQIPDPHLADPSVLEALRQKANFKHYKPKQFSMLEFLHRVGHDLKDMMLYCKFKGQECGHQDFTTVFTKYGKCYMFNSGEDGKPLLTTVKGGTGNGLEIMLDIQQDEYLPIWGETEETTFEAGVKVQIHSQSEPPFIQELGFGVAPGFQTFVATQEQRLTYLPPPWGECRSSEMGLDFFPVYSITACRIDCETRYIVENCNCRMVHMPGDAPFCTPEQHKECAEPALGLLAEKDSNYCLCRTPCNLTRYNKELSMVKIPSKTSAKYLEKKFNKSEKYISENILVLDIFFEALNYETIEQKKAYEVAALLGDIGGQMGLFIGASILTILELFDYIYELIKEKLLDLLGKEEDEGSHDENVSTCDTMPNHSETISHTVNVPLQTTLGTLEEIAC


Assays:
[1] = biological target: T6, hASIC1a (hASIC1a-mCherry, 4C12 cells) (Homo sapiens, UniProt P78348); assay: FLIPR assay of acid-induced ASIC1a-mediated calcium influx in 4C12 cells; assay type: cell-based; settings: at 30 µM
T6 construct: expressed in transfected cells
Protocol: Calcium Influx. The FLIPR Calcium 5 Assay kit was used to determine the acid-induced calcium influx in the hASIC1a-mCherry-expressing stable CHO-K1 cells (4C12). Cells were seeded in a clear bottom 96-well plate at a density of 10,000 per well 24 h before assay. Assay buffer and dye loading buffer (1.26 mM CaCl2, 0.5 mM MgCl2, 0.4 mM MgSO4, 5.33 mM KCl, 0.44 mM KH2PO4, 4.17 mM NaHCO3, 138 mM NaCl, 0.338 mM Na2HPO4, 20 mM HEPES, pH 7.4) were prepared according to the manufacturer's instruction. Probenecid was added to the dye loading buffer to a final concentration of 2.5 mM immediately before use. Fifty microliters of the assay buffer containing ASC06-IgG1 was incubated with the 4C12 cells for 30 min at 37° C., and an equal volume of the dye loading buffer was added. […] Cells were incubated with the dye loading buffer for 1 h before reading on an FDSS/μCELL plate reader (Hamamatsu). […] The progression curve of the calcium signal produced in each well was recorded continuously for 10 s before the addition of the activation buffer (preread) and 170 s after the addition on an FDSS/μCELL (excitation wavelength: 480 nm; emission wavelength: 540 nm) FLIPR reader. […]
The calcium influx of the ASIC1a was measured on a FLIPR instrument using the stable cell line 4C12 expressing hASIC1a-mCherry fusion. […]

hASIC1a-eYFP [2] = biological target: T1, hASIC1a-eYFP; assay: flow cytometry on 6H7 cells (stable hASIC1a-eYFP), Alexa555 secondary antibody
Protocol: In the flow cytometry-binding experiments, ASIC1a-eYFP-expressing stable cells (6H7) were collected and resuspended in ice cold FACS buffer (PBS, 0.05% BSA, 2 mM EDTA). […] After incubating at 4° C. for 15 min, the cells were washed twice and resuspended in the FACS buffer. Cells were sorted and analyzed on a flow cytometer (CytoFLEX S; Beckman Culter) to determine relative binding level by the antibodies to the stable cell lines overexpressing hASIC1a. Mean fluorescent intensities of Alexa555 in eYFP-positive cells were recorded and analyzed to calculate the apparent binding affinity of antibody.

[3] = biological target: T2, hASIC1a Y318A mutation (hASIC1a-eYFP); assay: flow cytometry, CHO-K1 cells transiently transfected with hASIC1a Y318A-eYFP, ASC06-IgG1 and labelled second antibody
From the text: Plasmid encoding single amino acid mutation of hASIC1a-eYFP was constructed and transient transfected into CHO-K1 cells.

hASIC1b-eYFP (human) = hASIC1b-eYFP (human) (UniProt P78348); assay: flow cytometry, CHO-K1 cells transiently transfected with hASIC1b-eYFP, Alexa555-conjugated ASC06-IgG1; eYFP-positive cells without antibody signal: Q1-LR(49.22%)
hASIC1a-eYFP [4] = biological target: T1, hASIC1a-eYFP; assay: cell-based or functional assay
hASIC1a-mCherry = biological target: T3, hASIC1a-mCherry; assay: cell-based or functional assay
hASIC3a-eYFP = biological target: T4, hASIC3a-eYFP; assay: flow cytometry, CHO-K1 cells transiently transfected with hASIC3a-eYFP, Alexa555-conjugated ASC06-IgG1
From the text: 10,000 cells were sorted.
(§1) The CHO-K1 cells were transiently transfected with these plasmids.

hASIC2a-eYFP = biological target: T5, hASIC2a-eYFP; assay: flow cytometry, CHO-K1 cells transiently transfected with hASIC2a-eYFP, Alexa555-conjugated ASC06-IgG1
From the text: 10,000 cells were sorted.
as §1

[5] = biological target: truncated hASIC1a (amino acids 13-464) (human) (UniProt P78348); assay: SPR (Biacore T200), single cycle kinetics, Flag-tagged ΔhASIC1a captured on anti-Flag chip, antibody as analyte
hASIC2a/2b-eYFP (human) = hASIC2a/2b-eYFP (human) (UniProt Q16515); assay: flow cytometry, CHO-K1 cells transiently transfected with hASIC2a/2b-eYFP, Alexa555-conjugated ASC06-IgG1; eYFP-positive cells without antibody signal: Q1-LR(27.09%)

Molecule	inhibition of calcium influx [1] [%]	EC50 (hASIC1a-eYFP [2]) [nM]	binding result [3]	percent of cells in quadrant Q1-UR (Alexa555 and eYFP double-positive) (hASIC1b-eYFP (human)) [%]	apparent IC50 of inhibition of acid (pH 6.0)-induced currents, whole-cell patch clamp on the hASIC1a stable cell line (hASIC1a-eYFP [4]) [nM]	IC50 of inhibition of acid-induced calcium influx, FLIPR assay on 4C12 cells (hASIC1a-mCherry) [nM]	binding result (hASIC3a-eYFP)	binding result (hASIC2a-eYFP)	Kd [5] [nM]	percent of cells in quadrant Q1-UR (Alexa555 and eYFP double-positive) (hASIC2a/2b-eYFP (human)) [%]
N=C(N)NC(=O)c1nc(Cl)c(N)nc1N [amiloride]	21									
ASC06-IgG1 (antibody, V domains shown, also called full length (ASC06-IgG1); ASC06-lgG1) VH: QVQLQQSGGGLVQPGGSLRLSCAASGFTFSSYAMSWVRQAPGKGLEWVSAISGSGGSTYYADSVKGRFTISRDNSKNTLYLQMNSLRAEDTAVYYCAKDSFYGYSKGDWGQGTLVTVSS VL: QSALTQPASVSGSPGQSITISCTGTSSDVGAYNYVSWYQQQPGKAPKLMIYGVSNRPSGVSNRFSGSKSGNAASLTISGLQAEDEADYYCSSYTSSSTYVFGTGTKLTVLG		2.06	no binding	0.15	85	2.9	no binding	no binding	7.9	0.11
